In experiment [1] the target is T1, murine Tissue Factor in murine brain extracts (murine, UniProt P20352 29-294).
T1 sequence (looked up): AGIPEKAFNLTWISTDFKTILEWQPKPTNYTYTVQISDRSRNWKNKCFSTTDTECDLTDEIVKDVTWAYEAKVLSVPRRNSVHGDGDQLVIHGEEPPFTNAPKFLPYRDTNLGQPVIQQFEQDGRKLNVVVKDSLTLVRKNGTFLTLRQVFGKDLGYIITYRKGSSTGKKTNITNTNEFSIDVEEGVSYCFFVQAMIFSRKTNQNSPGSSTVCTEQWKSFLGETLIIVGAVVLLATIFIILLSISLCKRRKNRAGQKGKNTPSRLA
The experiment can be described thus: cell-based or functional assay.

Experiment [2] concerns the target T2, murine Tissue Factor on B6F10 melanoma cells (murine, UniProt P20352 29-294).
T2 construct: whole, on cells; also called cell-associated mTF
T2 sequence (looked up): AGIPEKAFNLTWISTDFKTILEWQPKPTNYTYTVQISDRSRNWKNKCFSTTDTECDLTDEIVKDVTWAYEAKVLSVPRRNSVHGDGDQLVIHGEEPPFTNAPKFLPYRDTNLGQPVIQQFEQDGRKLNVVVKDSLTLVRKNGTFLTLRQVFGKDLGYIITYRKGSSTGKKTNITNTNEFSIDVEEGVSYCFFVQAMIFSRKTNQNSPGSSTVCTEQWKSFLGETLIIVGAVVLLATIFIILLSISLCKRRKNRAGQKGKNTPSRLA
The experiment can be described thus: FACS on B6F10 melanoma cells that express mTF.

B1: PHD103 Fab (Fab, V domains shown)
VH: QVQLVQSGAEVKKPGESLKISCKGSGYSFSNSWIAWVRQMPGKGLEWMGGIIGPGHSYTKYSPSFQGQVTISADKSISTAYLQWSSLKASDTAMYYCARINMGYFDYWGQGTLVTVSS
VL: DIELTQPPSVSVAPGQTARISCSGDSLGLKKFVSWYQQKPGQAPVLVIYDDSNRPSGIPERFSGSNSGNTATLTISGTQAEDEADYYCGTYDQTIGHDVVFGGGTKLTVLG
Turning to B1, in experiment [1], the “EC50 Conc. (ug/ml), inhibition of fibrin clot formation in human plasma with murine brain extracts as source of mTF” value (“EC50 Conc. (ug/ml), inhibition” below) came out at 63.3 µg/mL.

B2: PHD126 Fab (Fab, V domains shown)
VH: QVQLVQSGAEVKKPGESLKISCKGSYSFSNYWIGWVRQMPGKGLEWMGFIDPDDSDTNYSPSFQGQVTISADKSISTAYLQWSSLKASDTAMYYCARALYMQGGSFDSWGQGTLVTVSS
VL: DIELTQPPSVSVAPGQTARISCSGDNLGSYYVSWYQQKPGQAPVLVIYRDTDRPSGIPERFSGSNSGNTATLTISGTQAEDEADYYCQSYDYGVSNQVFGGGTKLTVLG
B2: the “EC50 Conc. (ug/ml), inhibition” value in experiment [1] came to 0.23 µg/mL.

B3: PHD127 Fab (Fab, V domains shown)
VH: QVQLVQSGAEVKKPGESLKISCKGSYSFTNSWISWVRQMPGKGLEWMGIIDPDDSYTSYSPSFQGQVTISADKSISTAYLQWSSLKASDTAMYYCARGAGYGRMFGDVWGQGTLVTVSS
VL: DIELTQPPSVSVAPGQTARISCSGDNLGSYYASWYQQKPGQAPVLVIYQDDNRPSGIPERFSGSNSGNTATLTISGTQAEDEADYYCGAYTYSTSWVFGGGTKLTVLG
notes: HuCAL Fab; The assignment of 8 (VH) and 9 (VL) to PHD127 follows the order of listing
In the case of B3, the “EC50 Conc. (ug/ml), inhibition” value in experiment [1] amounted to 0.82 µg/mL. Moreover, the EC50 (usually the concentration that produces a half-maximal response) in experiment [2] stood at 4.35 nM.

B4: PHD104 Fab (Fab, V domains shown)
VH: QVQLVQSGAEVKKPGESLKISCKGSYSFTSNWIGWVRQMPGKGLEWMGWIYPSDSMTRYSPSFQGQVTISADKSISTAYLQWSSLKASDTAMYYCARYLFGLFDNWGQGTLVTVSS
VL: DIELTQPPSVSVAPGQTARISCSGDNLGSYYVSWYQQKPGQAPVLVIYNDNNRPSGIPERFSGSNSGNTATLTISGTQAEDEADYYCATYDSSTDVFGGGTKLTVLG
Turning to B4, in experiment [1], the “EC50 Conc. (ug/ml), inhibition” value is 23.8 µg/mL.

The record behind these values is patent US20050239140A1 (Janssen / Centocor, published 2005).
